Results on 1 molecule are retold here after US20190233517A1.

For orientation: Kd means a measure of binding affinity in units of concentration.

Holding throughout (details): remark: other sources report otherwise
For experiment [1], the target named is Her3-his, P21860. Briefly: SPR. A general note: SPR reads the build-up and loss of mass on a sensor chip optically.
For experiment [2], the target named is HER3, P21860. Briefly: kinetic binding data, method not stated.
In experiment [3] the target is HER3, P21860. Kind of experiment: kinetic binding data, method not stated. This is another data set of the same source.

B1: Her3 antibody patritumab (antibody, V domains shown)
VH: QVQLQQWGAGLLKPSETLSLTCAVYGGSFSGYYWSWIRQPPGKGLEWIGEINHSGSTNYNPSLKSRVTISVETSKNQFSLKLSSVTAADTAVYYCARDKWTWYFDLWGRGTLVTVSS
VL: not shown
Regarding B1, the Kd is 1.28 nM in experiment [1], 0.9 nM in experiment [2] and 0.0302 nM in experiment [3].
